Data reported in patent US20200040059A1.
Values joined by “and” are separate entries in the source; they are usually repeats but may differ in a detail not shown here. Equal values may be shown once.

Experiments:
[1] = target: CTLA4 (human) (UniProt P16410); test: flow cytometry on HEK293 cells transfected with CTLA4
[2] = target: PD-L1 (human) (UniProt Q9NZQ7); test: flow cytometry on HEK293 cells transfected with PD-L1
[3] = target: human CD28, full-length, expressed on transfected Expi293 cells (human) (UniProt P10747); test: flow cytometry on CD28-expressing Expi293 cells
[4] = target: CD112R (human) (UniProt Q6DKI7); test: flow cytometry, cells expressing target, 25 nM
[5] = target: T1, TIGIT (human) (UniProt Q495A1); test: flow cytometry, cells expressing target, 25 nM
T1 sequence: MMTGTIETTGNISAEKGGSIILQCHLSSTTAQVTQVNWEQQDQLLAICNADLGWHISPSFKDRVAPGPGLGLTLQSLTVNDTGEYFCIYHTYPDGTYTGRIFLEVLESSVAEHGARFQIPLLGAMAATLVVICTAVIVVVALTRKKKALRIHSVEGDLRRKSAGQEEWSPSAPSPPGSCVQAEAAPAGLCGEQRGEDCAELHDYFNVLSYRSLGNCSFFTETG

[6] = target: T2, CD96 (UniProt P40200); test: flow cytometry, cells expressing target, 25 nM
T2 sequence (looked up): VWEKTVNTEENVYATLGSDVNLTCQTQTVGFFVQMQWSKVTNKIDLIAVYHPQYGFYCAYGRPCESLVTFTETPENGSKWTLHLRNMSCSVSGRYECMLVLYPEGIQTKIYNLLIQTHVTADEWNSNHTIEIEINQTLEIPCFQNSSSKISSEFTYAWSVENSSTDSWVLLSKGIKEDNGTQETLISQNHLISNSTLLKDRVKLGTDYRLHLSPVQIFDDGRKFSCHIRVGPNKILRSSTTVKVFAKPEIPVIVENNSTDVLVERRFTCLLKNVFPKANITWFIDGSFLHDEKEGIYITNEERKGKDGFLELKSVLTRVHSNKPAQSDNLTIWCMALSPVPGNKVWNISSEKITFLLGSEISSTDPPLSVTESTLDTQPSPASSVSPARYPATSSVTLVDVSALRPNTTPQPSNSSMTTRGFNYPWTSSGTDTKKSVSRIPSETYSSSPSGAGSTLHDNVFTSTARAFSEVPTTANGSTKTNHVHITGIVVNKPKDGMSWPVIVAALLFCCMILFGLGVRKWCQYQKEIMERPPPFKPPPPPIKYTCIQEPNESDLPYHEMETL

[7] = target: T3, CD226 (human) (UniProt Q15762); test: flow cytometry, cells expressing target, 25 nM
T3 sequence: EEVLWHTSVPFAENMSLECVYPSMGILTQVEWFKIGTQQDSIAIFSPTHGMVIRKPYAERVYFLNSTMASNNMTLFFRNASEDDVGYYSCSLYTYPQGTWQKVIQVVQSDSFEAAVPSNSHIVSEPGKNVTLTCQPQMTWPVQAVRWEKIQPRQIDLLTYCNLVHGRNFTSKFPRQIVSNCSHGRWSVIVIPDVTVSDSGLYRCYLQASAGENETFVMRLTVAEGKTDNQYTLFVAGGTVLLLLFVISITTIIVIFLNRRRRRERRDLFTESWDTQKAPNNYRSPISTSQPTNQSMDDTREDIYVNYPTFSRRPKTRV

[8] = target: PD-1 (Homo sapiens (Human)) (UniProt Q15116); test: flow cytometry, cells expressing PD-1
[9] = target: CD80 (Homo sapiens (Human)) (UniProt P33681); test: flow cytometry, cells expressing CD80
[10] = target: T4, human TIGIT, full length, expressed on transfected cells (human) (UniProt Q495A1); test: flow cytometry on transfected cells
T4 sequence: T1 sequence

[11] = target: T5, human CD226, full length, expressed on transfected cells (human) (UniProt Q15762); test: flow cytometry on transfected cells
T5 sequence: T3 sequence

[12] = target: CD112R, expressed on transfected cells (human) (UniProt Q6DKI7); test: flow cytometry on transfected cells
[13] = target: CD96, expressed on transfected cells (UniProt P40200); test: flow cytometry on transfected cells

CD112R, expressed on transfected cells (human), sequence (Q6DKI7 whole entry): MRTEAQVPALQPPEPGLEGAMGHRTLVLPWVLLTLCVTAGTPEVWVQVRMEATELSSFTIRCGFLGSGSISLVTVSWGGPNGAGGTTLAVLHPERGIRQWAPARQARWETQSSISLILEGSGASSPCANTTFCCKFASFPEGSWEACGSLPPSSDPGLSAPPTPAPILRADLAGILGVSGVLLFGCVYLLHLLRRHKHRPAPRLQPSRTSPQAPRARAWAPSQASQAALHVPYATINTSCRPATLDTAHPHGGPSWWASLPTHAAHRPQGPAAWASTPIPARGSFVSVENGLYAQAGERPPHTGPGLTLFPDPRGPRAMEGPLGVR
CD112R (human), sequence (Q6DKI7 whole entry): as above
PD-L1 (human), sequence (Q9NZQ7 19-290 limits assumed): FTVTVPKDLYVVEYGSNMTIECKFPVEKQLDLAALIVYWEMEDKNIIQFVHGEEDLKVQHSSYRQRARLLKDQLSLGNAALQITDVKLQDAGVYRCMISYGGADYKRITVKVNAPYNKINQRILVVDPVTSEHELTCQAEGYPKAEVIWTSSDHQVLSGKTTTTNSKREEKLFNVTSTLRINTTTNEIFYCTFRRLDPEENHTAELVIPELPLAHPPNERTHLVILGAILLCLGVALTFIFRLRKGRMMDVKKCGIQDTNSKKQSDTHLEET
wild-type CD155 IgV-Fc, sequence (P15151 24-139 limits assumed): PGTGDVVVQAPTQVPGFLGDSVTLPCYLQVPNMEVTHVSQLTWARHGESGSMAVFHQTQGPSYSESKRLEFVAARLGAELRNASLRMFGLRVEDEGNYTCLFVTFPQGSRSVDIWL
CTLA4 (human), sequence (P16410 36-223 limits assumed): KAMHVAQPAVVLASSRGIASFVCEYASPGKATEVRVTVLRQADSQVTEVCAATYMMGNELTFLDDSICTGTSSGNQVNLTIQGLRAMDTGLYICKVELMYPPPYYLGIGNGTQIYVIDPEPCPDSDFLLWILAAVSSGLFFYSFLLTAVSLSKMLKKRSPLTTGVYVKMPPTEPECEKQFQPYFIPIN

Substance | MFI at 25 nM [4] [MFI] | MFI at 25 nM [5] [MFI] | MFI at 25 nM [6] [MFI] | MFI at 25 nM [7] [MFI] | MFI at 20 nM [8] | other results
CD80 IgV-Fc E35D/M47I (from UniProt P33681 35-141) (Fc fusion) |  |  |  |  |  | MFI at 66.6 nM [1]: 354000 MFI; MFI at 22.2 nM [2]: 150000 MFI
CD80 IgV-Fc L70P/F92S (from UniProt P33681 35-141) (Fc fusion) |  |  |  |  |  | MFI at 66.6 nM [1]: 4040 MFI; MFI at 22.2 nM [2]: 6170 MFI
CD80 IgV-Fc M43I/C82R (from UniProt P33681 35-141) (Fc fusion) |  |  |  |  |  | MFI at 66.6 nM [1]: 3640 MFI; MFI at 22.2 nM [2]: 7400 MFI
CD80 IgV-Fc M47L/V68A (from UniProt P33681 35-141) (Fc fusion) |  |  |  |  |  | MFI at 66.6 nM [1]: 74200 MFI
CD80 IgV-Fc N55D/K86M (from UniProt P33681 35-141) (Fc fusion) |  |  |  |  |  | MFI at 66.6 nM [1]: 3540 MFI; MFI at 22.2 nM [2]: 5090 MFI
CD80 IgV-Fc V22L/M38V/M47T/A71D/L85M (from UniProt P33681 35-141) (Fc fusion) |  |  |  |  |  | MFI at 66.6 nM [1]: 175000 MFI; MFI at 22.2 nM [2]: 6140 MFI
CD80 variant M38V/T41D/M43I/W50G/D76G/V83A/K89E/T120S/T130A ECD-Fc fusion (from UniProt P33681 35-242) |  |  |  |  |  | MFI [3]: 5 MFI
CD155 variant IgV-Fc D8G, V9I, V11A, P18T, T26M, S52P, L79P, F91S, G92A, T107L, V115A (from UniProt P15151 24-139) (Fc fusion) | 817 | 52500 | 97800 |  |  | 
CD155 variant IgV-Fc P18F, E51V, S54G, Q60R, L79Q, E82G, S87T, M90I, F91S, G92R, T107M (from UniProt P15151 24-139) (Fc fusion) | 1010 | 46100 | 61800 | 15700 |  | 
CD155 variant IgV-Fc P18F, H40Q, T61K, Q62K, L79P, F91S, L104M, T107V (from UniProt P15151 24-139) (Fc fusion) | 918 | 108000 |  | 853 |  | 
CD155 variant IgV-Fc P18S, H59N, V75A, L79P, A81T, F91S, L104M, T107M (from UniProt P15151 24-139) (Fc fusion) | 915 | 800 | 759 | 676 |  | 
CD155 variant IgV-Fc P18S, K70R, L79P, F91S, G111R (from UniProt P15151 24-139) (Fc fusion) | 854 | 16200 | 1180 | 793 |  | 
CD155 variant IgV-Fc P18T, G19D, M36T, S54N, L79P, L83Q, F91S, T107M, F108Y (from UniProt P15151 24-139) (Fc fusion) | 1280 | 905 | 726 | 748 |  | 
CD155 variant IgV-Fc P18T, M55L, T61R, L79P, F91S, V106I, T107M (from UniProt P15151 24-139) (Fc fusion) | 827 | 133000 | 57900 | 1910 |  | 
CD155 variant IgV-Fc P18T, T39S, S52P, S54R, L79P, F91S, T107M (from UniProt P15151 24-139) (Fc fusion) | 1040 | 45900 | 1220 | 744 |  | 
CD155 variant IgV-Fc P18T, W46C, H49R, S65A, S67V, A76T, L79P, S87T, L104M (from UniProt P15151 24-139) (Fc fusion) | 803 | 918 | 717 | 640 |  | 
CD155 variant IgV-Fc V9A, P18S, M36T, S65G, L79P, F91S, L104T, G111R, S112I (from UniProt P15151 24-139) (Fc fusion) | 886 | 92500 |  | 989 |  | 
CD155 variant IgV-Fc V9I, P18F, A47E, G50S, E68G, L79P, F91S, T107M (from UniProt P15151 24-139) (Fc fusion) | 752 | 55200 | 102000 | 54300 |  | 
CD155 variant IgV-Fc V9L, P18L, M55V, S69L, L79P, A81E, F91S, T107M (from UniProt P15151 24-139) (Fc fusion) | 920 | 58700 | 67400 |  |  | 

Substance | MFI at 25 nM [4] [MFI] | MFI at 25 nM [5] [MFI] | MFI at 25 nM [6] [MFI] | MFI at 25 nM [7] [MFI] | MFI at 20 nM [8] | other results
CD155 variant IgV-Fc V9L, V11M, P18S, N35S, S54G, Q62K, L79P, L104M, T107M, V115M (from UniProt P15151 24-139) (Fc fusion) | 893 | 3000 | 925 | 2320 |  | 
CD155 variant IgV-Fc V10F, T15S, P18L, R48Q, L79P, F91S, T107M, V115M (from UniProt P15151 24-139) (Fc fusion) | 901 | 1170 | 998 | 792 |  | 
CD155 variant IgV-Fc V10G, P18T, L72Q, L79P, F91S, T107M (from UniProt P15151 24-139) (Fc fusion) | 863 | 4250 | 3640 |  |  | 
CD155 variant IgV-Fc V11A, P18F, D23A, L79P, G80D, V95A, T107M (from UniProt P15151 24-139) (Fc fusion) | 830 | 45200 | 33900 | 913 |  | 
CTLA4-Fc (Fc fusion) |  |  |  |  | 59 | MFI at 20 nM [9]: 200000
Fc Control |  |  |  |  | 59 | MFI at 20 nM [9]: 132
ICOSL variant N52S/S130G/Y152C ECD-Fc fusion (from UniProt O75144 19-256) |  |  |  |  |  | MFI [3]: 24 MFI
variant PD-L1 ECD-Fc G15A, I36T, M97L, K111E, H202Q (from UniProt Q9NZQ7 19-238) (Fc fusion) |  |  |  |  | 112 | 
variant PD-L1 ECD-Fc G15A, I36T, V129D (from UniProt Q9NZQ7 19-238) (Fc fusion) |  |  |  |  | 114 | MFI at 20 nM [9]: 136
variant PD-L1 ECD-Fc G15A, I36T, V129D, R195G (from UniProt Q9NZQ7 19-238) (Fc fusion) |  |  |  |  | 125 | 
variant PD-L1 ECD-Fc I36S, M41K, M97L, K144Q, R195G, E200K, H202Q, L206F (Fc fusion) |  |  |  |  | 3500 | MFI at 20 nM [9]: 68700
variant PD-L1 ECD-Fc I36T, I83T, M97L, K144E, P198T (Fc fusion) |  |  |  |  | 62 | MFI at 20 nM [9]: 6220
variant PD-L1 ECD-Fc I36T, M97L, A103V, Q155H (from UniProt Q9NZQ7 19-238) (Fc fusion) |  |  |  |  | 120 | MFI at 20 nM [9]: 128
variant PD-L1 ECD-Fc I36T, M97L, Q155H, F193S, N201Y (Fc fusion) |  |  |  |  | 69 | MFI at 20 nM [9]: 1250
variant PD-L1 ECD-Fc K28I, S99G (Fc fusion) |  |  |  |  | 830 | MFI at 20 nM [9]: 693
variant PD-L1 ECD-Fc L35P, I36S, M97L, K111E (from UniProt Q9NZQ7 19-238) (Fc fusion) |  |  |  |  | 190 | MFI at 20 nM [9]: 155
variant PD-L1 ECD-Fc M18V, M97L, F193S, R195G, E200K, H202Q (from UniProt Q9NZQ7 19-238) (Fc fusion) |  |  |  |  | 69 | 
wild-type CD155 IgV-Fc (from UniProt P15151 24-139) (Fc fusion) |  |  |  |  |  | MFI at 100 nM [10]: 2180 and 4690; MFI at 100 nM [11]: 2320 and 2370 and 4690; MFI at 100 nM [12]: 2170 and 1740 and 2940; MFI at 100 nM [13]: 1890 and 1680 and 3270
